In the data set the test system is T1, REC2 recombinase (Ustilago maydis).
T1 sequence: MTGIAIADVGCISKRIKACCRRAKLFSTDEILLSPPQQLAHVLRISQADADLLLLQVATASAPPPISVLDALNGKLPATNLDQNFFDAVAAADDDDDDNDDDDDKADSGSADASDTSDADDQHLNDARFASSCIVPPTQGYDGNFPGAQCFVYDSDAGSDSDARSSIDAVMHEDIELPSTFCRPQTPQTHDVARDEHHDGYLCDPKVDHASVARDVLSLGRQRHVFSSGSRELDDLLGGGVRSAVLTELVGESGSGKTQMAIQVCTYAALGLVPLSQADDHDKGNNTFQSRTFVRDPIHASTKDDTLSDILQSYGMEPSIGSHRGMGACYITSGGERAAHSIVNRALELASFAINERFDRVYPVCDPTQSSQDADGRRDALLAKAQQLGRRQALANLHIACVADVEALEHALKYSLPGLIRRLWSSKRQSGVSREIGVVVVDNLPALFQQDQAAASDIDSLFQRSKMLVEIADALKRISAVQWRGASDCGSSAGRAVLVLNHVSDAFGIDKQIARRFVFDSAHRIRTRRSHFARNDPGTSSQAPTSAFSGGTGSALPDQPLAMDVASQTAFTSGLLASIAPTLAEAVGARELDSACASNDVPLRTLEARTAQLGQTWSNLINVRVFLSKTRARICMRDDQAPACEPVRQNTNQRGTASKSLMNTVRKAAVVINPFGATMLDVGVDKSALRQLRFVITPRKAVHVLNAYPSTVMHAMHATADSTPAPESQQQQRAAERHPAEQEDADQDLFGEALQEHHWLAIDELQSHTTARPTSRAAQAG
The settings on record: DNA-dependent ATPase turnover; 10 mM MgCl2, pH 7.5, 37 C.

Take M13 single-stranded circular DNA: the activity stood at 5.3 min⁻¹.

The values above are taken from patent US5780296.
